# Laboratory results reported in US20150203577A1 (Chugai, published 2015).
# Where a chain is given by its changes, count along the chain named.
# T1: mouse FcγRII extracellular domain with C-terminal His tag (mouse, UniProt P08101 30-210)
# T1 construct: Made on the basis of NCBI NP-034317.1; also called mFcγRII; mFcgRII
# T1 sequence: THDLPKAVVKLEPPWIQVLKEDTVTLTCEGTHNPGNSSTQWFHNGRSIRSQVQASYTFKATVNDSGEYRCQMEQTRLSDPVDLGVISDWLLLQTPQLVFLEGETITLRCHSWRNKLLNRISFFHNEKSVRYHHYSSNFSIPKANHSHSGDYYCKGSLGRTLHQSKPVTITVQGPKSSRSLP
# T2: mouse FcγRIII extracellular domain with C-terminal His tag (mouse, UniProt P08508 31-215)
# T2 construct: Made on the basis of NCBI NP-034318.2; also called mFcγRIII; mFcgRIII
# T2 chain: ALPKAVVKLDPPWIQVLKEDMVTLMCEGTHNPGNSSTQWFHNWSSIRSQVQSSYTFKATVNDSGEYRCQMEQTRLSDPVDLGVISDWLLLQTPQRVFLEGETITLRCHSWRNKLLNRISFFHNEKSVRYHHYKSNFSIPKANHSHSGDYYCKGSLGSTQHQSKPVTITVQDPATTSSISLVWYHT
# B1: H237-MB378/MRAL-k0 (antibody, mouse IgG1, kappa)
# heavy: QVQLQESGPGLVKPSETLSLTCAVSGHSISHDHAWSWVRQPPGEGLEWIGFISYSGITNYNPSLQGRVTISRDNSKNTLYLQMNSLRAEDTAVYYCARSLARTTAMDYWGEGTLVTVSSAKTTPPSVYPLAPGSAAQTNSMVTLGCLVKGYFPEPVTVTWNSGSLSSGVHTFPAVLQSDLYTLSSSVTVPSSTWPSETVTCNVAHPASSTKVDKKIVPRDCGCKPCICEVNEVEDVFIFPPKPKDVLTITLTPKVTCVVVDISKDDPEVQFSWFVDDVEVHTAQTQPREEQFNSTFRSVSELPIMHQDWLNGKEFKCRVNSAAFPAPIEKTISKTKGRPKAPQVYTIPPPKEQMAKDKVSLTCMITDFFPEDITVEWQWNGQPAENYKNTQPIMDTDGSYFVYSKLNVQKSNWEAGNTFTCSVLHEGLHNHHTEKSLSHSPGK
# light: not shown
# notes: copies: 2 + 2
# B2: H237-MB383/MRAL-k0 (antibody, mouse IgG1, kappa)
# heavy: B1 heavy with V230N, N231P
# light: not shown
# notes: copies: 2 + 2
# B3: H237-MB411/MRAL-k0 (antibody, mouse IgG1, kappa)
# heavy: B1 heavy with E229P, N231Y
# light: not shown
# notes: copies: 2 + 2
# B4: H237-MB400/MRAL-k0 (antibody, mouse IgG1, kappa)
# heavy: B1 heavy with V230W
# light: not shown
# notes: copies: 2 + 2
# B5: H237-MB401/MRAL-k0 (antibody, mouse IgG1, kappa)
# heavy: B1 heavy with V230W, N231W
# light: not shown
# notes: copies: 2 + 2
# B6: H237-MB402/MRAL-k0 (antibody, mouse IgG1, kappa)
# heavy: B1 heavy with V230W, N231Y
# light: not shown
# notes: copies: 2 + 2
# B7: H237-MB408/MRAL-k0 (antibody, mouse IgG1, kappa)
# heavy: B1 heavy with E229T, V230A, N231Y
# light: not shown
# notes: copies: 2 + 2
# B8: H237-MB406/MRAL-k0 (antibody, mouse IgG1, kappa)
# heavy: B1 heavy with E229P, V230A, N231Y
# light: not shown
# notes: copies: 2 + 2
# B9: H237-MB380/MRAL-k0 (antibody, mouse IgG1, kappa)
# heavy: B1 heavy with V230D, N231A
# light: not shown
# notes: copies: 2 + 2
# B10: H237-MB398/MRAL-k0 (antibody, mouse IgG1, kappa)
# heavy: B1 heavy with V230W, N231P
# light: not shown
# notes: copies: 2 + 2
# B11: H237-MB396/MRAL-k0 (antibody, mouse IgG1, kappa)
# heavy: B1 heavy with V230T, N231W
# light: not shown
# notes: copies: 2 + 2
# B12: H237-MB405/MRAL-k0 (antibody, mouse IgG1, kappa)
# heavy: B1 heavy with E229I, V230A, N231Y
# light: not shown
# notes: copies: 2 + 2
# B13: H237-MB385/MRAL-k0 (antibody, mouse IgG1, kappa)
# heavy: B1 heavy with V230N
# light: not shown
# notes: copies: 2 + 2
# B14: H237-MB386/MRAL-k0 (antibody, mouse IgG1, kappa)
# heavy: B1 heavy with V230N, N231W
# light: not shown
# notes: copies: 2 + 2
# B15: H237-MB391/MRAL-k0 (antibody, mouse IgG1, kappa)
# heavy: B1 heavy with V230P, N231W
# light: not shown
# notes: copies: 2 + 2
# B16: H237-MB399/MRAL-k0 (antibody, mouse IgG1, kappa)
# heavy: B1 heavy with V230W, N231A
# light: not shown
# notes: copies: 2 + 2
# B17: H237-MB409/MRAL-k0 (antibody, mouse IgG1, kappa)
# heavy: B1 heavy with E229D, N231Y
# light: not shown
# notes: copies: 2 + 2
# B18: H237-MB394/MRAL-k0 (antibody)
# heavy: B1 heavy with V230T, N231A
# light: not shown
# notes: Printed M8394, read as MB394; also called M8394; copies: 2 + 2
# B19: H237-MB381/MRAL-k0 (antibody, mouse IgG1, kappa)
# heavy: B1 heavy with V230D
# light: not shown
# notes: copies: 2 + 2
# B20: H237-MB413/MRAL-k0 (antibody, mouse IgG1, kappa)
# heavy: B1 heavy with E229T, N231Y
# light: not shown
# notes: copies: 2 + 2
# B21: H237-MB395/MRAL-k0 (antibody, mouse IgG1, kappa)
# heavy: B1 heavy with V230T
# light: not shown
# notes: copies: 2 + 2
# B22: H237-MB412/MRAL-k0 (antibody, mouse IgG1, kappa)
# heavy: B1 heavy with E229Q, N231Y
# light: not shown
# notes: copies: 2 + 2
# B23: H237-MB393/MRAL-k0 (antibody, mouse IgG1, kappa)
# heavy: B1 heavy with V230T, N231P
# light: not shown
# notes: copies: 2 + 2
# B24: H237-MB407/MRAL-k0 (antibody, mouse IgG1, kappa)
# heavy: B1 heavy with E229Q, V230A, N231Y
# light: not shown
# notes: copies: 2 + 2
# B25: H237-MB392/MRAL-k0 (antibody, mouse IgG1, kappa)
# heavy: B1 heavy with V230P, N231Y
# light: not shown
# notes: copies: 2 + 2
# B26: H237-MB404/MRAL-k0 (antibody, mouse IgG1, kappa)
# heavy: B1 heavy with E229D, V230A, N231Y
# light: not shown
# notes: also called M8404; copies: 2 + 2
# B27: H237-MB384/MRAL-k0 (antibody, mouse IgG1, kappa)
# heavy: B1 heavy with V230N, N231A
# light: not shown
# notes: copies: 2 + 2
# B28: H237-MB388/MRAL-k0 (antibody, mouse IgG1, kappa)
# heavy: B1 heavy with V230P, N231P
# light: not shown
# notes: copies: 2 + 2
# Biological target: T1, mouse FcγRII extracellular domain with …
# Assay: SPR Biacore T200
# Experimental: (§1) Each altered antibody was analyzed for its interaction with each Fcγ receptor prepared above using Biacore T100 (GE Healthcare Japan Corp.), Biacore T200 (GE Healthcare Japan Corp.), Biacore A100, or Biacore 4000. The running buffer used was HBS-EP+ (GE Healthcare Japan Corp.). The assay temperature was set to 25° C. The sensor chips used were chips prepared by immobilizing Protein L (ACTIGEN or BioVision) onto Series S Sensor Chip CM5 (GE Healthcare Japan Corp.) or Series S Sensor Chip CM4 (GE Healthcare Japan Corp.) by the amine coupling method.
# (§2) In order to calculate the KD value of each altered antibody for FcγR, kinetic analysis was conducted according to the following method: first, the antibody of interest was captured onto any of these chips and allowed to interact with mFcγR diluted with a running buffer. For the obtained sensorgram, the assay results were globally fit into the 1:1 Langmuir binding model using Biacore Evaluation Software to calculate an association rate constant ka (L/mol/s) and a dissociation rate constant kd (1/s). From these values, the dissociation constant KD (mol/L) was calculated.
relative mFcγRII-binding activity (mIgG1 = 1),Kd,Binder
172,,B1
106,,B2
132,,B3
81.7,,B4
162,,B5
208,1.01 nM,B6
163,,B7
191,,B8
78.1,,B9
45.8,,B10
297,0.707 nM,B11
146,,B12
152,,B13
268,0.784 nM,B14
281,0.747 nM,B15
71.8,,B16
192,,B17
134,,B18
93.5,,B19
108,,B20
154,,B21
113,,B22
89.9,,B23
164,,B24
257,0.817 nM,B25
236,0.891 nM,B26
125,,B27
277,0.757 nM,B28

# Biological target: T2, mouse FcγRIII extracellular domain with …
# Assay: SPR Biacore T200
# Experimental: as §1, §2
relative mFcγRIII-binding activity (mIgG1 = 1),Kd,Binder
9.3,,B1
5.4,,B2
8.1,,B3
5.5,,B4
6.9,,B5
12,23.6 nM,B6
13.1,,B7
6.5,,B8
4.2,,B9
3.5,,B10
17.9,15.8 nM,B11
8,,B12
7.9,,B13
14.5,19.5 nM,B14
10.9,25.9 nM,B15
3.9,,B16
10.7,,B17
7.5,,B18
5.7,,B19
11.9,,B20
8.2,,B21
8.3,,B22
5.6,,B23
9.8,,B24
14.5,19.5 nM,B25
8.6,33 nM,B26
6.3,,B27
10.8,26.2 nM,B28

# Biological target: T1, mouse FcγRII extracellular domain with …
# Assay: SPR Biacore T200; KD mFcγRIII / KD mFcγRII
# Experimental: as §1, §2
relative I/A (mFcγRII selectivity) (mIgG1 = 1),I/A (mFcγRII selectivity),Binder
18.6,,B1
19.6,,B2
16.4,,B3
15,,B4
23.7,,B5
17.4,23.3,B6
12.5,,B7
29.6,,B8
18.7,,B9
13,,B10
16.6,22.3,B11
18.2,,B12
19.2,,B13
18.6,24.9,B14
25.9,34.7,B15
18.2,,B16
18,,B17
17.8,,B18
16.5,,B19
9.1,,B20
18.7,,B21
13.7,,B22
16,,B23
16.9,,B24
17.8,23.9,B25
27.6,37,B26
19.8,,B27
25.9,34.6,B28
